The values that follow come from patent publication US20180250426A1 (GEORGIA STATE UNIVERSITY RESEARCH FOUNDATION, published 2018).

One assay deals with T1, HER2 (human, UniProt P04626 23-1255).
T1 construct: whole, on cells; also called cell surface HER2
Kind of assay: immunofluorescence staining of AU565 cells (HER2 high) with PAbPGCA1. The text has this: We used two cancer cell lines for the binding analyses. AU565 is derived from breast carcinoma. EMT6 is a mouse mammary tumor cell line. AU565 cells express very high levels of HER2. The EMT is regarded as a HER2 negative cell line.

The target in assay [1] is T2, GRPR (GRP receptor) (UniProt P30550 1-384, limits assumed).
T2 construct: whole, on cells; also called gastrin release peptide receptor
The experiment in a line: confocal immunofluorescence with a CD2 antibody and Alexa Fluor 488 on GRPR-high PC-3 and DU145 cells; CA1-CD2 without the bombesin sequence as control. Here is the method: (§1) In the second day, fresh medium was changed. Contrast agents were incubated with cells at different time point at 37° C. […] After cells were rinsed in PBS for three times, 0.2% Triton X-100 was added to permeablize cells for 10 minutes. […] After three time washes, CD2 antibody was used as primary antibody.

In assay [2] the target is T2, GRPR (GRP receptor). Kind of assay: confocal immunofluorescence with a CD2 antibody and Alexa Fluor 488 on GRPR-high PC-3 and DU145 cells at 37 °C; GRPR-low H441 cells as control. Here is the method: as §1

T2 sequence (P30550 whole entry): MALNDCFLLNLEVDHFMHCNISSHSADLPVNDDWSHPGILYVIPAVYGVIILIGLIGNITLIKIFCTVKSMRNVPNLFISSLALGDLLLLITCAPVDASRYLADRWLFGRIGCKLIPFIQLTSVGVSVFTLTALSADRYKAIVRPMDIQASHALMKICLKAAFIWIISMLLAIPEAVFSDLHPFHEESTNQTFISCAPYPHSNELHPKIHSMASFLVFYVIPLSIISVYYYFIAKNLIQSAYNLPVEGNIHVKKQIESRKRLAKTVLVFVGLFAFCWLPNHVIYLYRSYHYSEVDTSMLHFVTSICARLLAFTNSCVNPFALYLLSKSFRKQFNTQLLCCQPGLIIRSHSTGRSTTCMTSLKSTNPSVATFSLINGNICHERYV

B1: CA1.CD2 (designed binder)
chain: RDSGTVWGALGHGIELNIPNFQMTDDIDEVRWERGSTLVAEFKRKMKPFLKSGAFEIDANGDLDIKNLTRDDSGTYNVTVYSTNGTRILNKALDLRILE
notes: domain: domain 1; 12 kDa, expressed in E. coli; in most assays loaded with Gd3+; also called Gd-CA1.CD2
Regarding B1, the binding result with HER2 and with GRPR (GRP receptor) [1] was “no binding” in each case.

B2: CA1.CD2-52I-Bom (designed binder)
chain: RDSGTVWGALGHGIELNIPNFQMTDDIDEVRWERGSTLVAEFKRKMKPFLKSGGSGGGNQWAVGHLMGGSGGGAFEIDANGDLDIKNLTRDDSGTYNVTVYSTNGTRILNKALDLRILE
notes: also called CA1.Bom
Consider B2, for which, in the assay with GRPR (GRP receptor) [2], the binding result is reported as “binds”.
